According to publication PMC5382158 (Frontiers in Cellular and Infection Microbiology, 2017):

B1: KdpF-T18 (peptide)
chain: MTTVDNIVGLVIAVALMAFLFAALLFPEKF

Key:
[1] = molecular target: NarI-T25 (M. tuberculosis); assay: two-hybrid
Rv2617c-T25 = molecular target: T1, Rv2617c-T25 (M. tuberculosis, UniProt I6XER9 1-146); assay: two-hybrid; conditions: partners not purified
T1 sequence: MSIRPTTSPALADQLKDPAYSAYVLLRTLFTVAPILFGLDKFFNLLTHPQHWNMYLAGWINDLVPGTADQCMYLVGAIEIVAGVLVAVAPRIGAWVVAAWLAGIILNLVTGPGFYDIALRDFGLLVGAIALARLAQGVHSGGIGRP

Row | Molecule | β-galactosidase activity [1] [Miller units] | β-galactosidase activity (Rv2617c-T25) [Miller units]
1 | KdpF-T18 (peptide) | 1200 | –
2 | B1 | – | 2030
